According to patent US8557762 (CHILDREN S HOSPITAL OF PHILADELPHIA, dated 2013):
Several values for one entry are separate records, joined by “and”; a condition that tells them apart may be missing. Equal entries are not always repeated. Where two headings read alike, the source gives them in different places.

Experiments:
[1] = target: T1, recombinant venom-derived factor V from Pseudonaja textilis (pt-rFV) (Pseudonaja textilis, UniProt Q7SZN0 31-1460); test: fluorescent binding measurements, membrane-bound human FXa (data not shown)
T1 construct: mature
T1 sequence: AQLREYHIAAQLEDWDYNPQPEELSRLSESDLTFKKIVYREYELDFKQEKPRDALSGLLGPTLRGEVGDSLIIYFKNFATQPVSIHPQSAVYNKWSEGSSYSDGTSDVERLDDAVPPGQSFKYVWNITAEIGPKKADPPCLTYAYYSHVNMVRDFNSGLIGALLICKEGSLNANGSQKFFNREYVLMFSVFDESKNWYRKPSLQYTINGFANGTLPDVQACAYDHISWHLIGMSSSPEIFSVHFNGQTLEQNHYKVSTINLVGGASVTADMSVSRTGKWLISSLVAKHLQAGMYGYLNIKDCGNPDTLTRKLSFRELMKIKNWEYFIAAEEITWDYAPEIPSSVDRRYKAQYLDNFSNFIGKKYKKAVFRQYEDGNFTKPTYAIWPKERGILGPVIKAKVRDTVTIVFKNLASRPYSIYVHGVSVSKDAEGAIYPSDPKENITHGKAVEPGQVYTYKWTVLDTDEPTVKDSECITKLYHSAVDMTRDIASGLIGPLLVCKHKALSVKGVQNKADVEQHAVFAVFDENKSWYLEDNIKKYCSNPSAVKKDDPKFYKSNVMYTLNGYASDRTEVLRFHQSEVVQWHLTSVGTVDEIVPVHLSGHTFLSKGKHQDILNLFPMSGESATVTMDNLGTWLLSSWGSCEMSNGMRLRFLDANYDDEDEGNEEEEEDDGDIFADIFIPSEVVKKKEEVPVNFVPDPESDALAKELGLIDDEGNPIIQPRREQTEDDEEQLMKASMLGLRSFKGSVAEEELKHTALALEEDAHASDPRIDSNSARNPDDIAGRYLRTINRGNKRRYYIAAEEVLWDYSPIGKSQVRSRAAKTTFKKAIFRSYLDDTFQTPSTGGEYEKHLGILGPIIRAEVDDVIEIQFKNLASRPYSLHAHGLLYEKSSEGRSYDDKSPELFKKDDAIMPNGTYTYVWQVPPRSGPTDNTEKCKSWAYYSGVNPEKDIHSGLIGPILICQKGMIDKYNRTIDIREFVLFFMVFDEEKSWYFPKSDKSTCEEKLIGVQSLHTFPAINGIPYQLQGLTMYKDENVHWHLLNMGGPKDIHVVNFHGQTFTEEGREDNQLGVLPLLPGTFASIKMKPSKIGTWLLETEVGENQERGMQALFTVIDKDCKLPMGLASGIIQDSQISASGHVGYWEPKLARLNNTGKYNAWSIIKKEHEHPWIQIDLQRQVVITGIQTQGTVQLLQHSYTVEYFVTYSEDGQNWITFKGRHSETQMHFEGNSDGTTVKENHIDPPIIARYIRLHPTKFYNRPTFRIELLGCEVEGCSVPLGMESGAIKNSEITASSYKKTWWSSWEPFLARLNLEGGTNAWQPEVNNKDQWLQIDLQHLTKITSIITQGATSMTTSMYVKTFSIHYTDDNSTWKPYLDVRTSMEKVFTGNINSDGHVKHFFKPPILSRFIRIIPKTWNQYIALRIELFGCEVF

[2] = target: T2, pt-rFVa (pt-rFV processed by thrombin) (Pseudonaja textilis, UniProt Q7SZN0 31-772; Q7SZN0 819-1460); test: as above
T2 sequence (heavy): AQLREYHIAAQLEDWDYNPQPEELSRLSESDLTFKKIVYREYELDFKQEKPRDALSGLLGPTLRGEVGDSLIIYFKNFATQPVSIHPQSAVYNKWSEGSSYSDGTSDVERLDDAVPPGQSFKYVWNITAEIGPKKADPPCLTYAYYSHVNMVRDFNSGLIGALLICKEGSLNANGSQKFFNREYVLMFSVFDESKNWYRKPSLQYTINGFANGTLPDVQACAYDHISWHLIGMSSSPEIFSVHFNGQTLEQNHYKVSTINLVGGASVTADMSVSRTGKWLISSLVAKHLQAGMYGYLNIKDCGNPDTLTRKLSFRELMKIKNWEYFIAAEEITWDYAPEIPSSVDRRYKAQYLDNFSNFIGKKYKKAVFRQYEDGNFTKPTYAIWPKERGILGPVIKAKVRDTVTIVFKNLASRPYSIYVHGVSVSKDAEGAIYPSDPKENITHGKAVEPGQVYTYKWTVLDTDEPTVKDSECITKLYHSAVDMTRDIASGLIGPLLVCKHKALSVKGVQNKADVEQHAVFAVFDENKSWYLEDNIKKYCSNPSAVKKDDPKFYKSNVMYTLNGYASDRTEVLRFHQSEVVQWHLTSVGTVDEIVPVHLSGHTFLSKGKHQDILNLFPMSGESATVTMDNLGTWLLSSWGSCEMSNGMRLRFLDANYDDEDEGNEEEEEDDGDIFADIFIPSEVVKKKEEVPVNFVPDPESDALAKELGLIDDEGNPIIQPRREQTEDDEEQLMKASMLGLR
T2 sequence (light): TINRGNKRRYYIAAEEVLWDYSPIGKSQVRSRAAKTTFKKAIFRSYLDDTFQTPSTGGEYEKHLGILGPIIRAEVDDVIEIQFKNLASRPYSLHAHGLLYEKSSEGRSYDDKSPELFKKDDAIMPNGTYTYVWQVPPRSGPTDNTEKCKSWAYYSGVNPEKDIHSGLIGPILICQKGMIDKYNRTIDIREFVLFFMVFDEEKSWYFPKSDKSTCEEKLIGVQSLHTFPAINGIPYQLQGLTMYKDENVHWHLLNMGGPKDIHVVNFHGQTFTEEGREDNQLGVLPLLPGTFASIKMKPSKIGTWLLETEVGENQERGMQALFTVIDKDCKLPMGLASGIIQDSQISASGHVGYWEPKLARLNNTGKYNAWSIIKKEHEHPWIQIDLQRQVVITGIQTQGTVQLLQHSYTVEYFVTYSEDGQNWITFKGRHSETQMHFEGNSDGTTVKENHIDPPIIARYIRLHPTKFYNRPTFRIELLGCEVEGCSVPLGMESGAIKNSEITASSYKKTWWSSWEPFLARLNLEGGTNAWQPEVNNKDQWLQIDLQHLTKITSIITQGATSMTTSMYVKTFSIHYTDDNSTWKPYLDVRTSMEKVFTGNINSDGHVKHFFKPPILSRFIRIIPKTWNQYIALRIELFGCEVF

[3] = target: T1, recombinant venom-derived factor V from …
[4] = target: T2, pt-rFVa (pt-rFV processed by thrombin)
[5] = target: hFV-810 (constitutively active partial B-domainless form of human FV) (human, UniProt P12259 29-2224)
Sequence of hFV-810 (constitutively active partial B-domainless form of human FV) (P12259 other isoform, or with tags, fused parts or gaps limits assumed): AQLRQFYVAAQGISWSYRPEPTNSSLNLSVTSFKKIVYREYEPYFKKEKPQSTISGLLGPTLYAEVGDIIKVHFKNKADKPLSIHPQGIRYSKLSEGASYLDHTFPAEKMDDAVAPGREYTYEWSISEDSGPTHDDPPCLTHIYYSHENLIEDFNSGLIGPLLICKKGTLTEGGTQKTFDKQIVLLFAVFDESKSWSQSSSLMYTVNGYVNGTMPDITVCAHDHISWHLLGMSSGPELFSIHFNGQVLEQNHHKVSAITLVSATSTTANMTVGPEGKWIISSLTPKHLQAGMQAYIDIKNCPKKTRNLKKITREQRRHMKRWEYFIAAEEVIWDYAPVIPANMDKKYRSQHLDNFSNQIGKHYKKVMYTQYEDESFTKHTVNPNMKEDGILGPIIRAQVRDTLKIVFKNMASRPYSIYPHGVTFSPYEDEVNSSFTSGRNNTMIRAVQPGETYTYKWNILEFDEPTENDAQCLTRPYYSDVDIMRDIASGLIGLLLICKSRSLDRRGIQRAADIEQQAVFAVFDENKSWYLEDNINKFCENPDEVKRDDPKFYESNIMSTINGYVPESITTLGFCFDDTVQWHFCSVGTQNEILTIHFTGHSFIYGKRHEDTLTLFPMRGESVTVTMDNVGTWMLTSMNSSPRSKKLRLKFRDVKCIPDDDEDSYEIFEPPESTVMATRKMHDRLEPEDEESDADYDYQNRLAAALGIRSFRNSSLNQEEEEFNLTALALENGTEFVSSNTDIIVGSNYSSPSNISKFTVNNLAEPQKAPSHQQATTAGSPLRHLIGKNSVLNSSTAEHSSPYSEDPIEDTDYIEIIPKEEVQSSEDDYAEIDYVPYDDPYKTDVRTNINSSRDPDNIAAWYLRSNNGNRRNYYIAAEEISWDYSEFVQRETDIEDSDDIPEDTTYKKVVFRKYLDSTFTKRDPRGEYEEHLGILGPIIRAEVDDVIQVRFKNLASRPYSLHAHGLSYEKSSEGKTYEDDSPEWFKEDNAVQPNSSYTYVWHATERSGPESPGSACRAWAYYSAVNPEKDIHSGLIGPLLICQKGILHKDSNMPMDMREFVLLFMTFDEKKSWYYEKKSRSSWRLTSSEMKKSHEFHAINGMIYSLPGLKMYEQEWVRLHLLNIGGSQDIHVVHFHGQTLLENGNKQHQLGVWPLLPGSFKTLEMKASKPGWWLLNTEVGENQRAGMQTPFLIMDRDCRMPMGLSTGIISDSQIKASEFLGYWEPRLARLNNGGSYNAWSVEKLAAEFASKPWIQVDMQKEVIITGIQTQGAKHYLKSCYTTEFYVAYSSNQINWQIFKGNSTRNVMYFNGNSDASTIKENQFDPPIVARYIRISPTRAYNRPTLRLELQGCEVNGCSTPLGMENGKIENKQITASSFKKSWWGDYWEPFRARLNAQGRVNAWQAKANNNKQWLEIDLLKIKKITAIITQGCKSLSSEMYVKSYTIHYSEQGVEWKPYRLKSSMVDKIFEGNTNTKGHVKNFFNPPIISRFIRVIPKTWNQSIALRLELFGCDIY

B1: human factor Xa (membrane-bound human FXa) (enzyme)
chain 1: ANSFLEEMKKGHLERECMEETCSYEEAREVFEDSDKTNEFWNKYKDGDQCETSPCQNQGKCKDGLGEYTCTCLEGFEGKNCELFTRKLCSLDNGDCDQFCHEEQNSVVCSCARGYTLADNGKACIPTGPYPCGKQTLER
chain 2: IVGGQECKDGECPWQALLINEENEGFCGGTILSEFYILTAAHCLYQAKRFKVRVGDRNTEQEEGGEAVHEVEVVIKHNRFTKETYDFDIAVLRLKTPITFRMNVAPACLPERDWAESTLMTQKTGIVSGFGRTHEKGRQSTRLKMLEVPYVDRNSCKLSSSFIITQNMFCAGYDTKQEDACQGDSGGPHVTRFKDTYFVTGIVSWGEGCARKGKYGIYTKVTAFLKWIDRSMKTRGLPKAKSHAPEVITSSPLK
notes: also called rFXa; human rFXa
- Kd [1]: > 400 nM
- Kd [2]: > 400 nM

B2: purified enzymatic subunit of pseutarin C (pt-FXa) (enzyme)
chain 1: ANSLVEEFKSGNIERECIEERCSKEEAREVFEDDEKTETFWNVYVDGDQCSSNPCHYRGICKDGIGSYTCTCLSGYEGKNCERVLYKSCRVDNGNCWHFCKSVQNDIQCSCAEGYLLGEDGHSCVAGGNFSCGRNIKTRNK
chain 2: IVNGMDCKLGECPWQAALVDDKKGVFCGGTILSPIYVLTAAHCINETETISVVVGEIDRSRAETGPLLSVDKVYVHKKFVPPKKSQEFYEKFDLVSYDYDIAIIQMKTPIQFSENVVPACLPTADFANQVLMKQDFGIVSGFGGIFERGPNSKTLKVLKVPYVDRHTCMLSSNFPITPTMFCAGYDTLPQDACQGDSGGPHITAYRDTHFITGIVSWGEGCARKGRYGIYTKLSKFIPWIKRIMRQKLPSTESSTGRL
- Kd [3]: 3.06 nM and 8.08 nM
- Kd [4]: 3.84 nM and 7.54 nM
- Kd [5]: 3.76 nM
